Test results: article PMC10786891, “Massively parallel profiling of RNA-targeting CRISPR-Cas13d”
Numbering of substitutions follows the chain as printed. Names and notes keep the numbering of the source.

Molecular target: T1, EsCas13d, nuclease-dead (Eubacterium siraeum, UniProt B0MS50, R295A;H300A;R849A;H854A)
T1 sequence: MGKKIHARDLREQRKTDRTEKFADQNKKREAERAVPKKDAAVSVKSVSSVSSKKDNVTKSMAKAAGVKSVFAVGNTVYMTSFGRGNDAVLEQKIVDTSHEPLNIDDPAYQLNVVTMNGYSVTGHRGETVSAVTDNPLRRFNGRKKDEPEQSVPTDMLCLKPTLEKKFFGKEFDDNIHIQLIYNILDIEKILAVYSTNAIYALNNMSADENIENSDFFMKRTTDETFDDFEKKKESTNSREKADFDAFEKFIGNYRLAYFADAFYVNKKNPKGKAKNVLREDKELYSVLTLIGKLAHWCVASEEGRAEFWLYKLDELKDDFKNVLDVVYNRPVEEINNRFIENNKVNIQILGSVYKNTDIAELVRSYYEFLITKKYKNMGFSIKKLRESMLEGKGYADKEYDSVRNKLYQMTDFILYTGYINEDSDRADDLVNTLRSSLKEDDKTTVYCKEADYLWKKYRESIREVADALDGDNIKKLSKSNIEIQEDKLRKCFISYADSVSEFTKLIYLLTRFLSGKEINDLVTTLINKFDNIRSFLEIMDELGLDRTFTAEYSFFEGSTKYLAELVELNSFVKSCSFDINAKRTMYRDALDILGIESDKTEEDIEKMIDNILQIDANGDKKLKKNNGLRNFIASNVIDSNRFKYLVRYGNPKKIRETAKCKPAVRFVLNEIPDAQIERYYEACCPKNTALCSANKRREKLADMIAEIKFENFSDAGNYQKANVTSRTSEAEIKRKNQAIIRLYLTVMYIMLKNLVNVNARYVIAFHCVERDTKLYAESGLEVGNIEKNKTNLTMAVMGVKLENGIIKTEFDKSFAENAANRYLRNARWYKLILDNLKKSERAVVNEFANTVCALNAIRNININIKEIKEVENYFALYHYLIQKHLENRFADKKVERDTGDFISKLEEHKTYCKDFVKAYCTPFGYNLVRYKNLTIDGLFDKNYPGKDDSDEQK
Experiment: crRNA (strand 1, pre-loaded); Mg2+; 40 mM Tris-HCl pH 7.5, 150 mM NaCl, 6 mM MgCl2, 1 mM DTT, 0.1% Tween-20, 0.2 mg/ml BSA; 25 C; 10 min per concentration, then washed
Settings: tags: His6-TwinStrep-SUMO cleaved; N-terminal SNAP kept (SNAP-Surface 488); label: 3' end held by stalled T7 RNA polymerase

B1: target 1 G13U,A16C (mixed)
RNA 1: CACCCGUGCAAAAAUGCAGGGGUCUAAAACUGAGCGGAUAACCUCUCUAUGG
RNA 2: GGGAAUGGAUCCACAUCUACGAAUUCGUACCAUAGCGAUGUUAUCCGCUCACCGAGAUCGGAAGAGCACACGU
How did the Kd turn out when B1 was run?
Its Kd is 68 ± 14 nM.

B2: target 1 G12C,G15A (mixed)
RNA 1: B1 RNA 1
RNA 2: B1 RNA 2 with C36A, G37A, U39G, G40C
For B2, which Kd is on record?
The Kd was 50 ± 16 nM.

B3: target 1 insA 3' of 12,insA 3' of 4 (mixed)
RNA 1: B1 RNA 1
RNA 2: GGGAAUGGAUCCACAUCUACGAAUUCGUACCAUAGAGAGGAUUAUCCGCAUCACCGAGAUCGGAAGAGCACACGU
Which Kd does the source give for B3 here?
The Kd was 19.2 ± 1.2 nM.

B4: target 1 C2A,C21U (mixed)
RNA 1: B1 RNA 1
RNA 2: B1 RNA 2 with C31U, C36A, U39G, C50A
How did the Kd turn out when B4 was run?
Its Kd is 8.2 ± 0.5 nM.

B5: target 2 MT 5'PFS UCU 3'PFS CUU (mixed)
RNA 1: CACCCGUGCAAAAUUGCAGGGGUCUAAAACCUUCUCCAAAUUGUUUCAUCCU
RNA 2: GGGAAUGGAUCCACAUCUACGAAUUCUCUAGGAUGAAACAAUUUGGAGAAGCUUAGAUCGGAAGAGCACACGU
Which Kd does the source give for B5 here?
The Kd was 14.1 ± 2.5 nM.

B6: target 2 MT 5'PFS UAC 3'PFS CAU (mixed)
RNA 1: B5 RNA 1
RNA 2: B5 RNA 2 with C28A, U29C, U53A
B6 was tested. Which Kd did it give?
The Kd was 10 ± 2.3 nM.

B7: target 2 MT 5'PFS UAC 3'PFS CAG (mixed)
RNA 1: B5 RNA 1
RNA 2: B5 RNA 2 with C28A, U29C, U53A, U54G
B7 was tested. Which Kd did it give?
Its Kd is 8.5 ± 3 nM.

B8: target 2 MT 5'PFS AAC 3'PFS CUC (mixed)
RNA 1: B5 RNA 1
RNA 2: B5 RNA 2 with U27A, C28A, U29C, U54C
B8 was tested. Which Kd did it give?
Its Kd is 9 ± 3 nM.

B9: target 2 MT 5'PFS CUG 3'PFS AAA (mixed)
RNA 1: B5 RNA 1
RNA 2: B5 RNA 2 with U27C, C28U, U29G, C52A, U53A, U54A
Which Kd does the source give for B9 here?
The Kd was 2.9 ± 0.32 nM.

B10: target 2 MT 5'PFS CGC 3'PFS AAA (mixed)
RNA 1: B5 RNA 1
RNA 2: B5 RNA 2 with U27C, C28G, U29C, C52A, U53A, U54A
For B10, which Kd is on record?
Its Kd is 5.8 ± 1.6 nM.

B11: target 2 MT 5'PFS AAC 3'PFS CUG (mixed)
RNA 1: B5 RNA 1
RNA 2: B5 RNA 2 with U27A, C28A, U29C, U54G
For B11, which Kd is on record?
Its Kd is 7.3 ± 1.3 nM.

B12: target 2 MT 5'PFS UCG 3'PFS CGA (mixed)
RNA 1: B5 RNA 1
RNA 2: B5 RNA 2 with U29G, U53G, U54A
With B12 as the binder, how does the Kd read?
Its Kd is 33 ± 15 nM.

B13: target 2 MT 5'PFS AUU 3'PFS CCG (mixed)
RNA 1: B5 RNA 1
RNA 2: B5 RNA 2 with U27A, C28U, U53C, U54G
How did the Kd turn out when B13 was run?
Its Kd is 9.8 ± 1.1 nM.

B14: target 2 MT 5'PFS CUG 3'PFS AAG (mixed)
RNA 1: B5 RNA 1
RNA 2: B5 RNA 2 with U27C, C28U, U29G, C52A, U53A, U54G
Which Kd does the source give for B14 here?
The Kd was 3 ± 0.4 nM.

B15: target 2 MT 5'PFS AAG 3'PFS UUA (mixed)
RNA 1: B5 RNA 1
RNA 2: B5 RNA 2 with U27A, C28A, U29G, C52U, U54A
Which Kd does the source give for B15 here?
The Kd was 6.8 ± 1.3 nM.

B16: target 2 MT 5'PFS GUU 3'PFS CGA (mixed)
RNA 1: B5 RNA 1
RNA 2: B5 RNA 2 with U27G, C28U, U53G, U54A
For B16, which Kd is on record?
Its Kd is 15.2 ± 1.5 nM.

B17: target 2 MT 5'PFS AAA 3'PFS AUA (mixed)
RNA 1: B5 RNA 1
RNA 2: B5 RNA 2 with U27A, C28A, U29A, C52A, U54A
B17 was tested. Which Kd did it give?
The Kd was 4.4 ± 1 nM.

B18: target 2 MT 5'PFS UAC 3'PFS CAA (mixed)
RNA 1: B5 RNA 1
RNA 2: B5 RNA 2 with C28A, U29C, U53A, U54A
For B18, which Kd is on record?
Its Kd is 6 ± 1.1 nM.

B19: target 2 MT 5'PFS GGC 3'PFS UAG (mixed)
RNA 1: B5 RNA 1
RNA 2: B5 RNA 2 with U27G, C28G, U29C, C52U, U53A, U54G
With B19 as the binder, how does the Kd read?
Its Kd is 13.1 ± 2 nM.

B20: target 2 MT 5'PFS UAC 3'PFS CAC (mixed)
RNA 1: B5 RNA 1
RNA 2: B5 RNA 2 with C28A, U29C, U53A, U54C
B20 was tested. Which Kd did it give?
Its Kd is 5.3 ± 1 nM.

B21: target 2 MT 5'PFS CUG 3'PFS AAU (mixed)
RNA 1: B5 RNA 1
RNA 2: B5 RNA 2 with U27C, C28U, U29G, C52A, U53A
For B21, which Kd is on record?
The Kd was 3.6 ± 0.5 nM.

B22: target 2 MT 5'PFS CGC 3'PFS AAC (mixed)
RNA 1: B5 RNA 1
RNA 2: B5 RNA 2 with U27C, C28G, U29C, C52A, U53A, U54C
For B22, which Kd is on record?
Its Kd is 4.9 ± 0.5 nM.

B23: target 2 MT 5'PFS CGC 3'PFS AAG (mixed)
RNA 1: B5 RNA 1
RNA 2: B5 RNA 2 with U27C, C28G, U29C, C52A, U53A, U54G
Which Kd does the source give for B23 here?
The Kd was 4 ± 0.6 nM.

B24: target 2 MT 5'PFS UCG 3'PFS CGG (mixed)
RNA 1: B5 RNA 1
RNA 2: B5 RNA 2 with U29G, U53G, U54G
For B24, which Kd is on record?
Its Kd is 55 ± 16 nM.

B25: target 2 MT 5'PFS CUG 3'PFS AAC (mixed)
RNA 1: B5 RNA 1
RNA 2: B5 RNA 2 with U27C, C28U, U29G, C52A, U53A, U54C
How did the Kd turn out when B25 was run?
Its Kd is 3.4 ± 0.4 nM.

B26: target 2 MT 5'PFS UCG 3'PFS CGC (mixed)
RNA 1: B5 RNA 1
RNA 2: B5 RNA 2 with U29G, U53G, U54C
Which Kd does the source give for B26 here?
The Kd was 30 ± 6 nM.

B27: target 2 MT 5'PFS GGC 3'PFS UAU (mixed)
RNA 1: B5 RNA 1
RNA 2: B5 RNA 2 with U27G, C28G, U29C, C52U, U53A
B27 was tested. Which Kd did it give?
The Kd was 12.4 ± 1.5 nM.

B28: target 2 MT 5'PFS AAC 3'PFS CUU (mixed)
RNA 1: B5 RNA 1
RNA 2: B5 RNA 2 with U27A, C28A, U29C
B28 was tested. Which Kd did it give?
Its Kd is 9.1 ± 2.7 nM.

B29: target 2 MT 5'PFS GUU 3'PFS CGC (mixed)
RNA 1: B5 RNA 1
RNA 2: B5 RNA 2 with U27G, C28U, U53G, U54C
B29 was tested. Which Kd did it give?
The Kd was 11.4 ± 0.7 nM.

B30: target 2 MT 5'PFS GCG 3'PFS AAU (mixed)
RNA 1: B5 RNA 1
RNA 2: B5 RNA 2 with U27G, U29G, C52A, U53A
How did the Kd turn out when B30 was run?
Its Kd is 8.4 ± 1.3 nM.

B31: target 2 MT 5'PFS GUU 3'PFS CGG (mixed)
RNA 1: B5 RNA 1
RNA 2: B5 RNA 2 with U27G, C28U, U53G, U54G
B31 was tested. Which Kd did it give?
The Kd was 17 ± 1.6 nM.

B32: target 2 MT 5'PFS AUU 3'PFS CCA (mixed)
RNA 1: B5 RNA 1
RNA 2: B5 RNA 2 with U27A, C28U, U53C, U54A
B32 was tested. Which Kd did it give?
Its Kd is 14.8 ± 2.7 nM.
